Assay results published in the supplement of paper PMC10126150.
± gives the standard deviation of the averaged measurements.

Test system: ATP
Assay: switch fluorescence ratio, 500 uM ATP over buffer (Cy3 cluster intensity, sum of 5 cycles each) (fold (ratio)); higher = stronger signal-on switching upon ATP binding; sequences stand for … in TCGTCGGCAGCGTCAGATGTGTATAAGAGACAGTTTTTTTTTTTTTTTTTTTTTTTTT…TC
Conditions: aptamer strand: ATP DNA aptamer (quencher-CACCTGGGGGAGTATTGCGGAGGAAGG + anchor), 100 nM annealed; ATP concentration: 500 uM
Method in brief: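 Values give the fluorescence ratio for each switch-domain sequence, averaged from per-cluster ratios of summed target-cycle to summed buffer-cycle Cy3 intensity. The Cy3-labelled switching-strand clusters sat on a modified Illumina MiSeq flow-cell, were annealed to 100 nM quencher-labelled ATP aptamer, and were imaged in selection buffer, then after 15 min with 500 uM ATP at 22 °C. Five cycles ran with NaOH stripping and re-annealing between them, and clusters outside 100-1000 RFU were excluded.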
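Note: ATP exposure 15 min at 22 °C before imaging.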

GTTGTATGTA
switch fluorescence ratio: 1 ± 0.049

ACAAGATCGG
switch fluorescence ratio: 1.0072 ± 0.00016

TCTTAGTAGT
switch fluorescence ratio: 0.986 ± 0.028

TGCGAACCTT
switch fluorescence ratio: 1.71 ± 0.12

GAATAATGGG
switch fluorescence ratio: 1.01 ± 0.033

GATATGTTGA
switch fluorescence ratio: 1 ± 0.023

GAGGGAATCG
switch fluorescence ratio: 0.9635 ± 0.001

ATACTCGTGG
switch fluorescence ratio: 1.01 ± 0.042

GGTGTGTATC
switch fluorescence ratio: 1.01 ± 0.02

GACTATGGTT
switch fluorescence ratio: 0.986 ± 0.051

AGGGGGACCC
switch fluorescence ratio: 1 ± 0.058

CGCTTATGGA
switch fluorescence ratio: 1.003 ± 0.0032

ACAAGTTTAA
switch fluorescence ratio: 0.997 ± 0.025

GGTTGAGCTC
switch fluorescence ratio: 0.973 ± 0.063

TGTAGGGAGG
switch fluorescence ratio: 0.966 ± 0.053

TTCCTCGCTT
switch fluorescence ratio: 2.75 ± 1.6

GCTGTGGCT
switch fluorescence ratio: 0.972 ± 0.01

GTCATCGGCC
switch fluorescence ratio: 0.996 ± 0.035

GTTGCTAAAT
switch fluorescence ratio: 1 ± 0.03

CGATTCTGCT
switch fluorescence ratio: 0.996 ± 0.036

AACGTACGTT
switch fluorescence ratio: 1.14 ± 0.015

TAGTTCGTTG
switch fluorescence ratio: 0.9799 ± 0.0081

TTTTTTGGT
switch fluorescence ratio: 0.986 ± 0.016

TGGGGGGAGG
switch fluorescence ratio: 1 ± 0.036

GGTGGGAGAC
switch fluorescence ratio: 1.01 ± 0.03

TTGGGGTAGG
switch fluorescence ratio: 1.01 ± 0.032

GTGGAGGTTG
switch fluorescence ratio: 0.984 ± 0.03

GGCTAAAACT
switch fluorescence ratio: 1.01 ± 0.015

CCGGCCGGGG
switch fluorescence ratio: 1.01 ± 0.059

GCTTGTTTGA
switch fluorescence ratio: 1.01 ± 0.014

CGGATATGCG
switch fluorescence ratio: 1.06 ± 0.085

CGATGCTAGT
switch fluorescence ratio: 1.07 ± 0.037

TCTGGGGTGG
switch fluorescence ratio: 1.16 ± 0.21

TAGTCAGAGG
switch fluorescence ratio: 1.01 ± 0.012

GTTTCATATC
switch fluorescence ratio: 1.02 ± 0.047

CATTAAAGCC
switch fluorescence ratio: 0.968 ± 0.025

TGCTAGAACT
switch fluorescence ratio: 0.972 ± 0.019

GCGACCCTT
switch fluorescence ratio: 1.12 ± 0.037

CACGGCTTGG
switch fluorescence ratio: 0.9744 ± 0.0044

TAACAGGTGA
switch fluorescence ratio: 2.17 ± 0.085

AGGAGGGCTG
switch fluorescence ratio: 0.984 ± 0.011

TAGCAGTCAA
switch fluorescence ratio: 1.02 ± 0.02

ACGGGGTTTC
switch fluorescence ratio: 1.01 ± 0.021

TTGTGTATCA
switch fluorescence ratio: 0.993 ± 0.035

GTTTGAGGAG
switch fluorescence ratio: 0.986 ± 0.05

TATTTTGAGA
switch fluorescence ratio: 0.997 ± 0.012

GCCGGAAGAA
switch fluorescence ratio: 1.05 ± 0.037

TGTGACGGAC
switch fluorescence ratio: 1.12 ± 0.015

GAAGGCAGCG
switch fluorescence ratio: 1.03 ± 0.017

AAGGATTAGC
switch fluorescence ratio: 1.04 ± 0.11

GAGTATATGT
switch fluorescence ratio: 0.9998 ± 0.0099

TTTTACTCGA
switch fluorescence ratio: 1.03 ± 0.014

AGCTCGCGTC
switch fluorescence ratio: 0.981 ± 0.021

AGTTGTTGGA
switch fluorescence ratio: 1 ± 0.047

CGGGGGCCGT
switch fluorescence ratio: 0.936 ± 0.014

GAATGGGACA
switch fluorescence ratio: 1.13 ± 0.26

GAAGGGGCTG
switch fluorescence ratio: 1.01 ± 0.14

ATCGATGAGG
switch fluorescence ratio: 0.991 ± 0.058

GTGGAAAGCG
switch fluorescence ratio: 0.981 ± 0.059

GGGGGGCATA
switch fluorescence ratio: 1.01 ± 0.012

GGAATTGGTT
switch fluorescence ratio: 1.01 ± 0.061

TTTGTAAGAA
switch fluorescence ratio: 1.009 ± 0.006

AATGAATTCG
switch fluorescence ratio: 1 ± 0.031

TACCGGGCTT
switch fluorescence ratio: 0.978 ± 0.02

TTTTAATTCG
switch fluorescence ratio: 1.057 ± 0.0035

AGGTTGTTAA
switch fluorescence ratio: 1.0085 ± 0.0005

TGCCTCTAGA
switch fluorescence ratio: 1.1 ± 0.044

AAAGATAGAT
switch fluorescence ratio: 1.002 ± 0.0027

GGTTGAGGAC
switch fluorescence ratio: 1.01 ± 0.057

GATGATGGGT
switch fluorescence ratio: 1 ± 0.023

TTTTAGAGTG
switch fluorescence ratio: 1 ± 0.036

ACGACTGGGG
switch fluorescence ratio: 1.02 ± 0.03

TAATGAGAAC
switch fluorescence ratio: 0.974 ± 0.014

GGGGTTAATA
switch fluorescence ratio: 1 ± 0.067

TGGTTTATGG
switch fluorescence ratio: 1.01 ± 0.02

GATTATTGTA
switch fluorescence ratio: 0.9762 ± 0.0045

AATGAAGGGG
switch fluorescence ratio: 0.987 ± 0.031

GGGGGAAGTC
switch fluorescence ratio: 1.01 ± 0.034

AATTCTCTGT
switch fluorescence ratio: 1.03 ± 0.066

GGGTGGGAGT
switch fluorescence ratio: 1.026 ± 0.0097

ACGGCAAGGA
switch fluorescence ratio: 1.12 ± 0.028

TAATCGGCTC
switch fluorescence ratio: 1 ± 0.03

AAGGGGGTCT
switch fluorescence ratio: 1.02 ± 0.083

TTGGCATAAG
switch fluorescence ratio: 1.16 ± 0.28

GGGGTAAGGT
switch fluorescence ratio: 0.99 ± 0.036

GTTGGAGGAA
switch fluorescence ratio: 0.976 ± 0.0098

ATGCCTCGGG
switch fluorescence ratio: 1.02 ± 0.032

CGTATGCTGG
switch fluorescence ratio: 1.02 ± 0.019

TTTTATATTA
switch fluorescence ratio: 1 ± 0.04

TCGGACTCTT
switch fluorescence ratio: 1.01 ± 0.024

CCTGGGCGTC
switch fluorescence ratio: 1.037 ± 0.004

AGTGCGGAAG
switch fluorescence ratio: 1.04 ± 0.066

GTTGGTTCTT
switch fluorescence ratio: 1 ± 0.039

ATTTTTGAGT
switch fluorescence ratio: 1.02 ± 0.025

GTTTGGCCGG
switch fluorescence ratio: 0.998 ± 0.03

CCGTGGCTGT
switch fluorescence ratio: 1.31 ± 0.068

CGGATGTGTA
switch fluorescence ratio: 1.002 ± 0.01

TTTTTCCTAT
switch fluorescence ratio: 1.012 ± 0.0071

ACCTGCTAAC
switch fluorescence ratio: 1.59 ± 0.024

AGGGGCGTGC
switch fluorescence ratio: 0.977 ± 0.015

GTTTGAGGTG
switch fluorescence ratio: 1 ± 0.044

CTCGGGGTTT
switch fluorescence ratio: 0.998 ± 0.038

GACTCTTGAA
switch fluorescence ratio: 0.995 ± 0.071

AATTCAGCAT
switch fluorescence ratio: 1.03 ± 0.036

CTTGTCCAGC
switch fluorescence ratio: 1.04 ± 0.037

TACGGGTCGA
switch fluorescence ratio: 1.01 ± 0.016

TCTCAAAAAT
switch fluorescence ratio: 1.1 ± 0.025

CAATAAGAGC
switch fluorescence ratio: 1.09 ± 0.029

AATTGTTGTC
switch fluorescence ratio: 0.985 ± 0.01

AGACACCCCT
switch fluorescence ratio: 1.17 ± 0.073

TATCATTTTG
switch fluorescence ratio: 0.986 ± 0.057

TGAAAGATTA
switch fluorescence ratio: 1.01 ± 0.029

AAGTGTTATT
switch fluorescence ratio: 0.992 ± 0.026

TATCCGGGGT
switch fluorescence ratio: 1.03 ± 0.025

TAAGACGTTT
switch fluorescence ratio: 1.0122 ± 0.00032

TAAAAGTGGG
switch fluorescence ratio: 1.009 ± 0.003

CGTCATGGGT
switch fluorescence ratio: 1 ± 0.035

GTTTGTTAGG
switch fluorescence ratio: 1.012 ± 0.0095

GCTTGCATGC
switch fluorescence ratio: 1.04 ± 0.022

ATGTGCATAT
switch fluorescence ratio: 1.03 ± 0.02

GGGGGGAACG
switch fluorescence ratio: 0.971 ± 0.024

CAAGCCATCA
switch fluorescence ratio: 0.9994 ± 0.0092

AGATTCTGTT
switch fluorescence ratio: 0.945 ± 0.022

GGGATAAGTT
switch fluorescence ratio: 0.983 ± 0.035

AGAGAAGACC
switch fluorescence ratio: 1 ± 0.028

TGACGCGCGT
switch fluorescence ratio: 1.014 ± 0.0018

CCAAATGAGT
switch fluorescence ratio: 0.989 ± 0.012

GGCTGTGGGT
switch fluorescence ratio: 0.987 ± 0.052

GGGGGTACAC
switch fluorescence ratio: 1.01 ± 0.025

CAGGTAAAGG
switch fluorescence ratio: 1.01 ± 0.022

GGCGGGCATG
switch fluorescence ratio: 1.021 ± 0.0011

TAGGGGGTAC
switch fluorescence ratio: 1.31 ± 0.58

CGCTGCGGTT
switch fluorescence ratio: 1.01 ± 0.05

AAGCGCAGAC
switch fluorescence ratio: 2.32 ± 0.079

AGGAGGGGTC
switch fluorescence ratio: 1.01 ± 0.048

TTTTCGATTA
switch fluorescence ratio: 0.987 ± 0.016

ATTGGGGATG
switch fluorescence ratio: 0.9819 ± 0.0097

ACTTAGGAGA
switch fluorescence ratio: 1.01 ± 0.048

GGTCATTGTT
switch fluorescence ratio: 0.9635 ± 0.0031

AATGGGGATG
switch fluorescence ratio: 0.998 ± 0.058

CATGGATACA
switch fluorescence ratio: 0.978 ± 0.052

ACGTGTGGGA
switch fluorescence ratio: 1.04 ± 0.02

CGTTTGTCCT
switch fluorescence ratio: 0.9907 ± 0.0036

AGGCTATGTA
switch fluorescence ratio: 0.9998 ± 0.0042

CGGTCAGGGA
switch fluorescence ratio: 1.01 ± 0.037

GACTATCGGA
switch fluorescence ratio: 1.03 ± 0.013

AAACAAGTTG
switch fluorescence ratio: 1.02 ± 0.035

AAGCTTGGCT
switch fluorescence ratio: 0.965 ± 0.028

CTTAAATTGT
switch fluorescence ratio: 1.01 ± 0.011

TTCCGAAAGA
switch fluorescence ratio: 1.11 ± 0.066

GGTTTAAGTG
switch fluorescence ratio: 0.979 ± 0.052

TATGAATAGC
switch fluorescence ratio: 1.02 ± 0.05

TTGGTTGTGT
switch fluorescence ratio: 1.01 ± 0.015

ACGTAGGTTT
switch fluorescence ratio: 1.03 ± 0.046

CAGGGTGGGT
switch fluorescence ratio: 1.02 ± 0.05

TGGCACATAT
switch fluorescence ratio: 1.04 ± 0.054

TAAAGAAGGA
switch fluorescence ratio: 0.977 ± 0.042

TTCGGGTGGT
switch fluorescence ratio: 1.04 ± 0.05

TGGTGACCGT
switch fluorescence ratio: 1 ± 0.025

TGTTTTGGCA
switch fluorescence ratio: 0.9963 ± 0.0052

TAAATTTTGG
switch fluorescence ratio: 1.008 ± 0.0096

TTAGTGGGGA
switch fluorescence ratio: 1.01 ± 0.039

TTATACGTAT
switch fluorescence ratio: 1.04 ± 0.037

TTTTGCGATC
switch fluorescence ratio: 1.14 ± 0.021

TTACTGGAG
switch fluorescence ratio: 1.02 ± 0.06

GCTTGGCTCG
switch fluorescence ratio: 1.01 ± 0.027

ATCTCGGGTG
switch fluorescence ratio: 1.01 ± 0.043

TCAGTCTTTC
switch fluorescence ratio: 1.017 ± 0.0009

GGGACTGGGT
switch fluorescence ratio: 0.999 ± 0.012

GAGCGCGATT
switch fluorescence ratio: 1.03 ± 0.036

GGGCGTTATG
switch fluorescence ratio: 1.0238 ± 0.00033

TATTAATATT
switch fluorescence ratio: 1.003 ± 0.0059

TTTAGGGTTG
switch fluorescence ratio: 0.988 ± 0.022

AAGATGGTAG
switch fluorescence ratio: 0.971 ± 0.038

GGGACATTTT
switch fluorescence ratio: 1.026 ± 0.0086

GACAGGAATT
switch fluorescence ratio: 1.029 ± 0.008

ATTGTTTGAG
switch fluorescence ratio: 0.982 ± 0.0032

CTCAGTATTT
switch fluorescence ratio: 1.01 ± 0.018

CCGCATTGGT
switch fluorescence ratio: 4.77 ± 0.66

GGGGAAGGGT
switch fluorescence ratio: 1.08 ± 0.23

CGGGTTGGGC
switch fluorescence ratio: 1.07 ± 0.027

GCTAACGTGC
switch fluorescence ratio: 0.993 ± 0.046

ATGATGCGGG
switch fluorescence ratio: 1.01 ± 0.044

TTATTGTTGT
switch fluorescence ratio: 1 ± 0.014

TTAATTAAAA
switch fluorescence ratio: 0.962 ± 0.043

CGGGGTTCGA
switch fluorescence ratio: 1 ± 0.011

ATGTAATATG
switch fluorescence ratio: 0.992 ± 0.024

TCGAAGTGAA
switch fluorescence ratio: 1.09 ± 0.018

GGGGTTGGGC
switch fluorescence ratio: 1 ± 0.028

ATAGCATGTT
switch fluorescence ratio: 1 ± 0.038

ATGGGTCCGG
switch fluorescence ratio: 1.02 ± 0.037

TTTGTTGCCA
switch fluorescence ratio: 0.988 ± 0.0019

TTTTGGTTAA
switch fluorescence ratio: 1.02 ± 0.041

TAGGGACTGG
switch fluorescence ratio: 0.996 ± 0.016

AACGGACTTA
switch fluorescence ratio: 1.25 ± 0.044

TTTTGAGGTG
switch fluorescence ratio: 1.06 ± 0.028

GAGAAGAAGC
switch fluorescence ratio: 1 ± 0.025

CTGTAATGTT
switch fluorescence ratio: 0.992 ± 0.011

ACAATCTCTT
switch fluorescence ratio: 1.02 ± 0.025

TGGGGGTGGT
switch fluorescence ratio: 1 ± 0.028
